For assay [1], the target named is T1, human FcγRI (His-tagged, soluble, captured for SPR) (human, UniProt P12314 16-292, limits assumed).
T1 construct: His-tagged human FcγR expressed in CHO cells, purified in house and captured by an anti-His antibody on a CM5 chip; also called CD64; not shown: His tag
Kind of assay: SPR, His-tagged FcγR captured by anti-His antibody, antibody injected. How it is done: (§1) Surface plasmon resonance experiments were performed using the SPR T-200 instrument. His-tagged human FcγRs were expressed in CHO cells and purified in house mouse anti-his capture antibody was immobilized at approximately 5000 RU on a Series S Sensor Chip CM5 (GE Healthcare) using Instrument Buffer (0.005% P20 in PBS). FcγRs were diluted to 3.3˜10 nM in running buffer (0.005% P20, 0.1 mg/mL BSA in PBS) and injected at 10 μL/min for 1.5 min for the capture step. Panitumumab samples were diluted in running buffer (PBS+0.005% P20+0.1 mg/mL BSA) over a range of concentrations from 0.4 nM-20000 nM and injected over the captured FcγR with association and dissociation times of 3 minutes at 50 μL/min. The chip surface was regenerated by injecting 10 mM glycine, pH 1.7 at 30 μL/min for 30 s.
Background: SPR reads the build-up and loss of mass on a sensor chip optically.

The target in assay [2] is T2, huFcγRIIa-131H (His-tagged, soluble, captured for SPR) (human, UniProt P12318 34-217, limits assumed).
T2 construct: His-tagged human FcγR expressed in CHO cells, purified in house and captured by an anti-His antibody on a CM5 chip; also called FcγRIIa-H131; not shown: His tag
T2 sequence (looked up): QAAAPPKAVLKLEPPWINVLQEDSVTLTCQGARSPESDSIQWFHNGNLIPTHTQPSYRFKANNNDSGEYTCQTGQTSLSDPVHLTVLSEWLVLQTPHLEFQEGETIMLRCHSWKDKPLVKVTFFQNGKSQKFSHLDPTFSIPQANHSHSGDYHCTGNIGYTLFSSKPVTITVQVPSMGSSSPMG
Kind of assay: SPR, His-tagged FcγR captured by anti-His antibody, antibody injected; unenriched panitumumab; apparent KD. Here is the method: as §1

The target in assay [3] is T2, huFcγRIIa-131H (His-tagged, soluble, …). Kind of assay: SPR equilibrium binding, His-tagged FcγR captured by anti-His antibody; fucose enriched; equilibrium binding. How it is done: as §1
(§2) To try to assess the affinity of panitumumab and the various enriched glycan species for FcγRs, we measured the biding of panitumumab samples to all three human Fcγ Receptors by surface plasmon resonance (SPR). […] The binding was further assessed for the fucose and afucose enriched panitumumab samples by equilibrium binding (FIGS. 11A-11B). […]

Assay [4] shares this target. The assay can be described thus: SPR equilibrium binding, His-tagged FcγR captured by anti-His antibody; afucose enriched; equilibrium binding. How it is done: as §1, §2

Among the data in patent US20220177580A1 (Amgen, published 2022) are binding result and Kd values, retold here.

T1 sequence (P12314 16-292 limits assumed): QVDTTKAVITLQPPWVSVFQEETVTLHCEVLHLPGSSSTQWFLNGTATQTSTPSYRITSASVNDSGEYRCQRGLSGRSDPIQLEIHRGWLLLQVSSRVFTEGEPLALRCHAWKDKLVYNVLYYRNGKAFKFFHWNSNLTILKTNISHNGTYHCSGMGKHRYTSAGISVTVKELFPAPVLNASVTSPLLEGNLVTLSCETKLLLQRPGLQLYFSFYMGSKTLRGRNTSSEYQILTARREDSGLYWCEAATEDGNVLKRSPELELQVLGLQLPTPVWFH

B1: Panitumumab (antibody, human IgG2, kappa)
heavy: QVQLQESGPGLVKPSETLSLTCTVSGGSVSSGDYYWTWIRQSPGKGLEWIGHIYYSGNTNYNPSLKSRLTISIDTSKTQFSLKLSSVTAADTAIYYCVRDRVTGAFDIWGQGTMVTVSSASTKGPSVFPLAPCSRSTSESTAALGCLVKDYFPEPVTVSWNSGALTSGVHTFPAVLQSSGLYSLSSVVTVPSSNFGTQTYTCNVDHKPSNTKVDKTVERKCCVECPPCPAPPVAGPSVFLFPPKPKDTLMISRTPEVTCVVVDVSHEDPEVQFNWYVDGVEVHNAKTKPREEQFNSTFRVVSVLTVVHQDWLNGKEYKCKVSNKGLPAPIEKTISKTKGQPREPQVYTLPPSREEMTKNQVSLTCLVKGFYPSDIAVEWESNGQPENNYKTTPPMLDSDGSFFLYSKLTVDKSRWQQGNVFSCSVMHEALHNHYTQKSLSLSPGK
light: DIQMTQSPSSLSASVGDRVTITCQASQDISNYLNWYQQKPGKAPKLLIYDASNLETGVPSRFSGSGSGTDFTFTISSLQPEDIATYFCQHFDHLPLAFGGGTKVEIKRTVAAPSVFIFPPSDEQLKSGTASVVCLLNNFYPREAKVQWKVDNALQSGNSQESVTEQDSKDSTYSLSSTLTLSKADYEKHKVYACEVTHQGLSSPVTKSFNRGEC
modifications: N-linked glycan at N-297 (Kabat EU numbering; residue 295 of SEQ ID NO:1)
notes: Human IgG2 anti-EGFR monoclonal antibody produced in CHO cells at Amgen; unfractionated glycan profile; also called Vectibix; IgG2 (Panitumumab)
In the case of B1, in assay [1], the binding result is recorded as “no binding (tested: 10 µM)”. In addition, in assay [2], the Kd is about 20 µM.

B2: fucose enriched panitumumab (antibody, human IgG2, kappa)
heavy: B1 heavy
light: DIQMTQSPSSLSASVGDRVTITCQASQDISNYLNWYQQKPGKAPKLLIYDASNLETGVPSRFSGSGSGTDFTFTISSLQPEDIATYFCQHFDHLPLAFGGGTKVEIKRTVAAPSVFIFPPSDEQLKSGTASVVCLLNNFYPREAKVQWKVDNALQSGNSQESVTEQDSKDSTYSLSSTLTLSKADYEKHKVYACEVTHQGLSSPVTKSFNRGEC
modifications: N-297 glycan (residue 295 of SEQ ID NO:1) enriched for fucosylated species (flow-through of FcγIIIa affinity column; terminal galactose removed with β-(1-4)-galactosidase)
notes: also called fucosylated panitumumab; afucose-depleted (flow-through) mAb
On to B2, for which the Kd in assay [3] is about 7.9 µM.

B3: afucose enriched panitumumab (antibody, human IgG2, kappa)
heavy: B1 heavy
light: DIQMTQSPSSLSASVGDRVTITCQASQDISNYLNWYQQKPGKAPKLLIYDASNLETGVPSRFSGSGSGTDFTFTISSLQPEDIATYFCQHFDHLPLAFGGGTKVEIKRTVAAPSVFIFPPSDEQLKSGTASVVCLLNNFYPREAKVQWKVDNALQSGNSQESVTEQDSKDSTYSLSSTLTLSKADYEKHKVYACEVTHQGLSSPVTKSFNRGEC
modifications: N-297 glycan (residue 295 of SEQ ID NO:1) enriched for afucosylated species (Endo-H treatment, eluate of FcγIIIa affinity column; terminal galactose removed with β-(1-4)-galactosidase)
notes: also called afucosylated panitumumab; afucose enriched (eluate) mAb
With B3, the Kd in assay [4] is about 8 µM.
